The source of these data is patent publication US20170081417A1.

Test [1] concerns the target human OX40 (CD134), full length, expressed on cells (activated human T cells; EL4-OX40 and CHO-OX40 transfectants) (human) (UniProt P43489). As to the kind of experiment: flow cytometry titration on activated human T cells.
For test [2] the target is unchanged. As to the kind of experiment: flow cytometry, blocking of OX40L-FLAG binding to activated human T cells.
The target of test [3] is human OX40 extracellular domain fused to the Fc portion of human IgG1 (hOX40:hFc) (human). The test can be described thus: ELISA, OX40L-FLAG binding to coated hOX40:hFc. (An ELISA detects its analyte on a solid surface through an enzyme-linked reagent.)
In test [4] the target is recombinant human OX40:mFc fusion protein (Alexis Corporation) (human) (UniProt P43489). The test can be described thus: cross-blocking ELISA, hOX40:mFc pre-incubated with L106; competitor: coated 112V8.
The target of test [5] is human OX40 extracellular domain fused to the Fc portion of human IgG1 (hOX40:hFc) (human). As to the kind of experiment: ELISA, blocking of OX40L-FLAG binding to coated hOX40:hFc.
Test [6] deals with human OX40 (CD134), full length, expressed on cells (activated human T cells; EL4-OX40 and CHO-OX40 transfectants) (human) (UniProt P43489). As to the kind of experiment: flow cytometry, OX40L-FLAG binding to activated human T cells.
The target in test [7] is recombinant human OX40:mFc fusion protein (Alexis Corporation) (human) (UniProt P43489). As to the kind of experiment: cross-blocking ELISA, hOX40:mFc pre-incubated with L106; competitor: coated 112Y131.

Chain of human OX40 (CD134), full length, expressed on cells (activated human T cells; EL4-OX40 and CHO-OX40 transfectants) (human) (P43489 29-277 limits assumed): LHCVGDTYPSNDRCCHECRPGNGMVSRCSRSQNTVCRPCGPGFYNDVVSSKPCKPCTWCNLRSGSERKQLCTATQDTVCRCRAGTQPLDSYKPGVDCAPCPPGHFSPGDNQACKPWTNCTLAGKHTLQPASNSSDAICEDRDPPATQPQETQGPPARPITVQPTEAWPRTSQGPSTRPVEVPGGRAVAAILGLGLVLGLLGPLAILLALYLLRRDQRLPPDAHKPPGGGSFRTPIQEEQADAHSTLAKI
Chain of human OX40 extracellular domain fused to the Fc portion of human IgG1 (hOX40:hFc) (human) (chain, as listed by the source limits assumed): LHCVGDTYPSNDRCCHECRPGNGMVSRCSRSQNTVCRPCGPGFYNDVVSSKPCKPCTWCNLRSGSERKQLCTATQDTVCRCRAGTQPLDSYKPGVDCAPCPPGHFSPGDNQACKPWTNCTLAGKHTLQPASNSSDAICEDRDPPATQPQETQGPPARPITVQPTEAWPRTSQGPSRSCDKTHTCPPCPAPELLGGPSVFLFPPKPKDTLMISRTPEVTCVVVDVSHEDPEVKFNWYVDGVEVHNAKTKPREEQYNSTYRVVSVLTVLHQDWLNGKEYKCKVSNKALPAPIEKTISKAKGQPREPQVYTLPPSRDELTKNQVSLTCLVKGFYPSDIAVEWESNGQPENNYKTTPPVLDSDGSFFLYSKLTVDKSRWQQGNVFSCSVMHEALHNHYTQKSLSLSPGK
Chain of recombinant human OX40:mFc fusion protein (Alexis Corporation) (human) (P43489 29-214): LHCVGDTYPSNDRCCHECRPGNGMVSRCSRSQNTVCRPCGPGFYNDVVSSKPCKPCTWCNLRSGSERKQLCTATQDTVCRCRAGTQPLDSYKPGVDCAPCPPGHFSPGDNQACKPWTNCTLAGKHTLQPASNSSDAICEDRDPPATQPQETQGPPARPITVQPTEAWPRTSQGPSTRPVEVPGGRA

Regarding “mouse anti-human OX40 antibody L106 (Becton Dickinson, catalog number 340420)”, the BMAX Geo Mean (geometric mean fluorescence) in test [1] was found to be 52. Besides, the Kd (usually the equilibrium constant for the complex coming apart) in test [1] worked out at 1 nM. The IC50 (commonly the concentration that inhibits the measured activity by half) was 60.9 µg/mL in test [2] and 0.982 µg/mL in test [5]. Besides, the percent inhibition of OX40L binding in test [3] came to 95%; in test [6] it was 60%. For the same substance, the percent reduction of binding in test [4] and in test [7] was 10% throughout.
